Columns and labels:
[1] = biological target: membrane-bound TNFalpha on stably transfected CHO cells (B-220 cells); assay: FACS, beads with CHO-TNFα (B220) cells, Sample 2
[2] = biological target: membrane-bound TNFalpha on stably transfected CHO cells (B-220 cells); assay: FACS, anti-CD19-APC beads with TNFalpha-transfected CHO cells (Fig. 4b)

% bound beads [1]: 0.9%
# Events (P4, CHO cells bound to anti-CD19 beads) [2]: 6 events
% Parent (P4, CHO cells bound to anti-CD19 beads) [2]: 0.1%
% Total (P4, CHO cells bound to anti-CD19 beads) [2]: 0.1%
Substance: APC labeled unrelated antibody (anti-CD 19) (coated on beads)

Reference: patent publication EP3964526A1
